Data taken from IntAct's records for PubMed 10398681.

B1: Protein TRANSPORT INHIBITOR RESPONSE 1 (Arabidopsis thaliana (Mouse-ear cress)), Q570C0 (parent)
chain: MQKRIALSFPEEVLEHVFSFIQLDKDRNSVSLVCKSWYEIERWCRRKVFIGNCYAVSPATVIRRFPKVRSVELKGKPHFADFNLVPDGWGGYVYPWIEAMSSSYTWLEEIRLKRMVVTDDCLELIAKSFKNFKVLVLSSCEGFSTDGLAAIAATCRNLKELDLRESDVDDVSGHWLSHFPDTYTSLVSLNISCLASEVSFSALERLVTRCPNLKSLKLNRAVPLEKLATLLQRAPQLEELGTGGYTAEVRPDVYSGLSVALSGCKELRCLSGFWDAVPAYLPAVYSVCSRLTTLNLSYATVQSYDLVKLLCQCPKLQRLWVLDYIEDAGLEVLASTCKDLRELRVFPSEPFVMEPNVALTEQGLVSVSMGCPKLESVLYFCRQMTNAALITIARNRPNMTRFRLCIIEPKAPDYLTLEPLDIGFGAIVEHCKDLRRLSLSGLLTDKVFEYIGTYAKKMEMLSVAFAGDSDLGMHHVLSGCDSLRKLEIRDCPFGDKALLANASKLETMRSLWMSSCSVSFGACKLLGQKMPKLNVEVIDERGAPDSRPESCPVERVFIYRTVAGPRFDMPGFVWNMDQDSTMRFSRQIITTNGL

Variants of: B1
Conditions: with skp1b_arath SKP1B

Variant	effect of a mutation on the interaction
MQKRIALSFAEEVLEHVFSFIQLDKDRNSVSLVCKSWYEIERWCRRKVFIGNCYAVSPATVIRRFPKVRSVELKGKPHFADFNLVPDGWGGYVYPWIEAMSSSYTWLEEIRLKRMVVTDDCLELIAKSFKNFKVLVLSSCEGFSTDGLAAIAATCRNLKELDLRESDVDDVSGHWLSHFPDTYTSLVSLNISCLASEVSFSALERLVTRCPNLKSLKLNRAVPLEKLATLLQRAPQLEELGTGGYTAEVRPDVYSGLSVALSGCKELRCLSGFWDAVPAYLPAVYSVCSRLTTLNLSYATVQSYDLVKLLCQCPKLQRLWVLDYIEDAGLEVLASTCKDLRELRVFPSEPFVMEPNVALTEQGLVSVSMGCPKLESVLYFCRQMTNAALITIARNRPNMTRFRLCIIEPKAPDYLTLEPLDIGFGAIVEHCKDLRRLSLSGLLTDKVFEYIGTYAKKMEMLSVAFAGDSDLGMHHVLSGCDSLRKLEIRDCPFGDKALLANASKLETMRSLWMSSCSVSFGACKLLGQKMPKLNVEVIDERGAPDSRPESCPVERVFIYRTVAGPRFDMPGFVWNMDQDSTMRFSRQIITTNGL [P10A]	decreasing interaction
